Measured values taken from US20220281948A1 (published 2022).
Values belong to the binder of their own block, whether it stands above or below them.

How the values were obtained:
Test in all cases: multimer staining
[1] = molecular target: T1, LGSN peptide on HLA-DPA1*01:03 / HLA-DPB1*04:01 (human)
T1 peptide: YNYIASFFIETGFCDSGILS

[2] = molecular target: T2, MAGE-A2 peptide on HLA-DPA1*01:03 / HLA-DPB1*04:01 (human)
T2 peptide: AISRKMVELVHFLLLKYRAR

[3] = molecular target: T3, CCND1 peptide on HLA-DPA1*01:03 / HLA-DPB1*04:01 (human)
T3 peptide: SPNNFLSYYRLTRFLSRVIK

[4] = molecular target: T4, MUC5AC peptide on HLA-DPA1*01:03 / HLA-DPB1*04:01 (human)
T4 peptide: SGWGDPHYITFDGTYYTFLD

[5] = molecular target: T5, HSD17B12 peptide on HLA-DPA1*01:03 / HLA-DPB1*04:01 (human)
T5 peptide: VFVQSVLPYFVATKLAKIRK

B1: 05-LGSN296-315 (TCR)
alpha TRAV9-2*03 TRAJ32*01 CDR3: CALSDLSYGGATNKLIF
beta TRBV27*01 TRBJ1-5*01 CDR3: CASSKGQGLGNQPQHF
- binding result [1]: recognises

B3: 03-MAGE-A2108-127 (TCR)
alpha TRAV36/DV7*04 TRAJ40*01 CDR3: CAVEVNSGTYKYIF
beta TRBV2*01 TRBJ1-1*01 CDR3: CASRRDLAAFF
- binding result [2]: recognises

B4: 03-CCND1219-238 (TCR)
alpha TRAV2*01 TRAJ21*01 CDR3: CAVCTLYNFNKFYF
beta TRBV6-5*01 TRBJ2-1*01 CDR3: CASLTDNNEQFF
- binding result [3]: recognises

Results, then the binder that gave them:

- binding result [2]: recognises
B2: 06-MAGE-A2108-127 (TCR)
alpha TRAV19*01 TRAJ40*01 CDR3: CALSVGTYKYIF
beta TRBV7-9*01 TRBJ2-5*01 CDR3: CASSPGTGGRETQYF

- binding result [4]: recognises
B5: 05-MUC5AC4922-4941 (TCR)
Valpha: QTVTQSQPEMSVQEAETVTLSCTYDTSESNYYLFWYKQPPSRQMILVIRQEAYKQQNATENRFSVNFQKAAKSFSLKISDSQLGDTAMYFCAFMKRAETSGSRLTFGEGTQLTVNP
beta TRBV6-2*01 TRBJ2-5*01 CDR3: CASSYWPTRETQYF

- binding result [5]: recognises
B6: 05-HSD17B12225-244 (TCR)
alpha TRAV22*01 TRAJ18*01 CDR3: CAVAPYDRGSTLGRLYF
beta TRBV19*01 TRBJ2-5*01 CDR3: CASSTGQGLETQYF
